This data set is described as follows: protein stability index of a GFP-peptide fusion (GPS, HEK-293T) (PSI 1-6); higher = more stable.
[1] abbreviates: treatment: DMSO, c terminus: a fixed tail appended.
The mark [2] stands for this setting: treatment: MLN4924 1 uM, 8 h, c terminus: a fixed tail appended.
[3] abbreviates: treatment: DMSO, c terminus: native.
[4] abbreviates: treatment: MLN4924 1 uM, 8 h, c terminus: native.

In the supplement of paper PMC10567573 one finds protein stability index data, which are given here for 72 sequences.

± gives the standard deviation.
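Note: 24-mer peptide tiles fused after GFP, lentivirally expressed, FACS-sorted into six equal bins by GFP/DsRed ratio, decoded by Illumina sequencing, PSI is the read-weighted mean bin number.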

The sequence RESPSFKLEPMETERSPGPRLQEL [ZNF263] displayed a protein stability index under setting [1] of 4.42 ± 0.14 and a protein stability index under setting [2] of 4.51 ± 0.2.
On the same counts, the results for RFNQAILVSRHDPASRRRVVEEVR [LPCAT4] are 3.62 ± 0.25 and 3.59 ± 0.29.
On the same counts, the results for RFRDFVDALEDSLEEVAVQQTGDD [PBXIP1] are 4.87 ± 0.44 and 4.9 ± 0.27.
The like results for RGDSGRLGLGTRESHSCPQQVPMP [NEK8] were, in that order, 4.07 ± 0.18 and 4.19 ± 0.28.
Regarding RGGMLSASAETLPAGFRVSTLGTL [PPFIA4], the protein stability index under setting [1] is 3.26 ± 0.14 and the protein stability index under setting [2] was found to be 3.57 ± 0.49.
The like results for RGGSDPETTGIQIWSEVFTVEKPG [ATL3] were, in that order, 4 ± 0.59 and 4.09 ± 0.28.
On to RGGSLLAGGGGFGGGSLSGGGGSR [KRT15], for which the protein stability index runs as follows: under setting [1], 3.32 ± 1.1; under setting [2], 3.95 ± 0.34.
RGIHNIQKRYHCKECGKVFSQSAG [ZSCAN9]: the protein stability index is, setting by setting: under setting [1], 2.58 ± 0.27; under setting [2], 2.78 ± 0.24.
For RGLSQNLFSNSDHQRDGTLGALHT [SASS6], the protein stability index is, setting by setting: under setting [1], 3.87 ± 0.26; under setting [2], 3.81 ± 0.17.
RHCPYLDTINRSVLDFDFEKLCSI [USP39] came in with a protein stability index under setting [1] of 2.61 ± 0.23 and a protein stability index under setting [2] of 2.56 ± 0.3.
RIHVLPSLNPDGYEKAYEGGSELG [CPXM2]: the protein stability index under setting [1] came to 3.93 ± 0.11 and the protein stability index under setting [2] amounted to 4.36 ± 0.36.
Regarding RIVHLQETCDLGKIKPEARRYLEK [NLN], the protein stability index under setting [1] was 3.25 ± 0.51 and the protein stability index under setting [2] came out at 3.66 ± 0.67.
As to RKGLQHGFFDFETFDVDEYEHYER [CDC14A], the protein stability index is, setting by setting: under setting [1], 3.93 ± 0.31; under setting [2], 3.94 ± 0.41.
With RKQKQELCEKFDYLYGILEERKNE [TRIM55], the protein stability index runs as follows: under setting [1], 3.72 ± 0.36; under setting [2], 3.67 ± 0.54.
Regarding RKSLFDDKAVEIEELTYIIKQDIN [STX5], the protein stability index under setting [1] was determined as 2.9 ± 0.18 and the protein stability index under setting [2] is 2.76 ± 0.31.
For the sequence RKTQKKVPDVKEMEKSSFTEYIES [TAF7L], the protein stability index by setting is: under setting [1], 4.43 ± 0.13; under setting [2], 4.47 ± 0.27.
On to RLDKHLYVIGGRNETGYLSSVECY [KLHL14], for which the protein stability index is, setting by setting: under setting [1], 2.28 ± 0.17; under setting [2], 2.14 ± 0.2.
The like results for RLLLDSGAQVNMPADSFESPLTLA [ANKRD17] were, in that order, 3.44 ± 0.23 and 3.46 ± 0.41.
Regarding RLQCPFEQELLRRQQRLNQLEKPP [FAM107A], the protein stability index reads like this: under setting [1], 3.93 ± 0.33; under setting [2], 4.14 ± 0.18.
In the case of RNGHAKVVRLLLEHYRVQTQQTGT [FEM1B], the protein stability index under setting [1] stood at 2.32 ± 0.21 and the protein stability index under setting [2] was 2.3 ± 0.28.
In turn, RNLDASPTYKGLLMSLQNQLKESK [CEP70] showed a protein stability index under setting [1] of 3.19 ± 0.083 and a protein stability index under setting [2] of 3.36 ± 0.25.
As to RNQTQVLRQQQDEAYLASLRADQE [FAF2], the protein stability index amounted to 5.18 ± 0.32 under setting [1] and 5.17 ± 0.16 under setting [2].
With RPAFVRVRRGHSHLAPSEAKAADS, the protein stability index is 4.35 ± 0.1 under setting [1] and 4.45 ± 0.16 under setting [2].
Turning to RPASSGGAHTLVNHGYAEPAAGRE [KCNA3], the protein stability index runs as follows: under setting [1], 4.7 ± 0.44; under setting [2], 4.86 ± 0.23.
For the sequence RPNSRHTPSFSGDSSSSCSDHCIT [VDR], the protein stability index turned out to be 4.52 ± 0.086 under setting [1] and 4.45 ± 0.25 under setting [2].
The like results for RQSVENDIHGLRKVIDDTNITRLQ [KRT18] were, in that order, 4.17 ± 0.22 and 4.13 ± 0.25.
For RRFNFFVLENNLEAVARHMLIFSL [DNAAF3], the protein stability index was 2.77 ± 0.49 under setting [1] and 2.6 ± 0.47 under setting [2].
The like results for RRGSTPLHMAVERRVRGVVELLLA [RIPK4] were, in that order, 2.9 ± 0.085 and 2.67 ± 0.045.
The like results for RRGWRPSSREDSLEAGLPLQVRGY [CHGA] were, in that order, 3.42 ± 0.47 and 3.8 ± 0.27.
On the same counts, the results for RRHRLGGVGAVPGPGTPTGPSLPS [ZBTB22] are 4.25 ± 0.22 and 4.47 ± 0.16.
For the sequence RRLYEKKIFEYETQRRRLSPPSSS [EMD], the protein stability index by setting is: under setting [1], 3.25 ± 0.26; under setting [2], 3.35 ± 0.48.
For RRVGGSRILLRMTLGREVMSPLQA [NLN], the protein stability index runs as follows: under setting [1], 2.15 ± 0.32; under setting [2], 2.34 ± 0.35.
The like results for RSDADLVVFLSPLTTFQDQLNRRG [OAS1] were, in that order, 2.27 ± 0.22 and 2.33 ± 0.31.
As to RSELVEGCGWRCPEHGDRVAELFC [TRIM14], the protein stability index by setting is: under setting [1], 2.86 ± 0.12; under setting [2], 3.04 ± 0.36.
Take RSERKKWIHCFEGVTAIIFCVALS [GNAI1]: the protein stability index runs as follows: under setting [1], 3.21 ± 0.4; under setting [2], 2.89 ± 0.8.
On the same counts, the results for RSPRAGAGALLRLPSERLDFSMAE [PRPH] are 4.17 ± 0.17 and 4.21 ± 0.29.
In the case of RSQYEALVETNRREVEQWFATQTE [KRT34], the protein stability index reads like this: under setting [1], 4.29 ± 0.25; under setting [2], 4.33 ± 0.33.
Take RSSPDDLKALTRNVNRLNESFRDL [SCARA5]: the protein stability index reads like this: under setting [1], 3.95 ± 0.34; under setting [2], 3.88 ± 0.32.
The like results for RTCTAPLDRLKVLMQVHASRSNNM [SLC25A25] were, in that order, 2.68 ± 0.2 and 2.81 ± 0.21.
The like results for RTHTGEQPYTCSICRRNFSRRSSL [ZNF75A] were, in that order, 3.19 ± 0.44 and 3.67 ± 0.47.
With RTSLSSGATVRSFSINSRLASSLG [CDC14A], the protein stability index by setting is: under setting [1], 2.76 ± 0.34; under setting [2], 2.99 ± 0.48.
On the same counts, the results for RTSTFDPSHSDNLLHGLNLLWRKQ [KLHL14] are 2.96 ± 0.17 and 2.94 ± 0.15.
In the case of RVDQDKDKDCSLDCAGSPQKPLCA [SMOC2], the protein stability index runs as follows: under setting [1], 5.39 ± 0.34; under setting [2], 5.31 ± 0.32.
RYISMSVWTSPRRLVELAGQSLLK [PRAME] displayed a protein stability index under setting [1] of 2.89 ± 0.1 and a protein stability index under setting [2] of 2.96 ± 1.2.
The like results for RYLADLLPSVFGSLRDSGYFYDPI [RSPH3] were, in that order, 2.55 ± 0.49 and 2.6 ± 0.66.
The like results for SAGGSRTPAMSSSSSSRVLLRQQL [TFE3] were, in that order, 3.45 ± 0.24 and 3.32 ± 0.19.
As for SASSPASVGDPCGGAICGGPDHRL [SLC25A25], the protein stability index reads like this: under setting [1], 4.43 ± 0.23; under setting [2], 4.58 ± 0.22.
On the same counts, the results for SATALYRTDYSGRGELSARQMHLA [RAD51] are 3.26 ± 0.19 and 3.33 ± 0.21.
On the same counts, the results for SDPENWDRKLHSRPRKLYKHSSTS [BTBD10] are 3.77 ± 0.27 and 3.94 ± 0.24.
On the same counts, the results for SEDRRSRHCPYLDTINRSVLDFDF [USP39] are 3.18 ± 0.074 and 3.44 ± 0.3.
SEFRALQFSLMLCAFVGALGGAAF [SPNS1]: the protein stability index under setting [1] came out at 3.14 ± 0.048 and the protein stability index under setting [2] amounted to 3.04 ± 0.79.
Consider SEKETMQFLNDRLASYLEKVRQLE [KRT33B], for which the protein stability index is 2.55 ± 0.12 under setting [1] and 2.66 ± 0.28 under setting [2].
On the same counts, the results for SEYRSDIINAKSNDGWTPLHVAAH [ASB7] are 3.19 ± 0.38 and 3.27 ± 0.11.
The like results for SFPATLETQEQDVDLVQKYLEKYY [MMP1] were, in that order, 3.82 ± 0.12 and 4.09 ± 0.2.
For the sequence SFQPECSMKLTPLVLEVFGNEIS [VDR], the protein stability index turned out to be 2.23 ± 0.33 under setting [3] and 2.41 ± 0.14 under setting [4].
On to SGPEGNLNQIVTEPDANFPQFLHE [FAM104B], for which the protein stability index runs as follows: under setting [1], 4.81 ± 0.15; under setting [2], 4.93 ± 0.16.
On the same counts, the results for SGRRNWCSYVVTRTISCHVQNGTY [EMID1] are 2.12 ± 0.41 and 1.93 ± 0.37.
With SGTTLISVIVLDINDNAPTFQSSV [PCDHGC5], the protein stability index is, setting by setting: under setting [1], 2.96 ± 0.28; under setting [2], 2.64 ± 0.63.
Regarding SHRSNLIRHQRIHTGEKPYTCHEC [ZNF263], the protein stability index stood at 3.16 ± 0.26 under setting [1] and 3.49 ± 0.23 under setting [2].
Regarding SIFYDLPQGSGFCLGQLNLEQRSE [SMAD6], the protein stability index is, setting by setting: under setting [1], 3.21 ± 0.21; under setting [2], 3.45 ± 0.25.
The like results for SKLSLLLNDISRKSEGLSGRVLRK [TRIP13] were, in that order, 2.82 ± 0.28 and 2.82 ± 0.31.
The like results for SKNEDRGEEEAESSISSTSNEQLK [ZMYND11] were, in that order, 5.33 ± 0.63 and 5.49 ± 0.21.
Regarding SKNLIYRDVKPENFLIGRQGNKKE [CSNK1G1], the protein stability index reads like this: under setting [1], 4.26 ± 0.22; under setting [2], 4.28 ± 0.18.
As to SKPKNSVWKRLKSPFRKKKDSVT [RIT1], the protein stability index turned out to be 3.55 ± 0.49 under setting [3] and 3 ± 0.43 under setting [4].
As for SKYVKLNVGGALYYTTMQTLTKQD [KCTD10], the protein stability index by setting is: under setting [1], 2.15 ± 0.25; under setting [2], 2.44 ± 0.33.
In turn, SLFSLLIAAAVYIMDTVGNIWVCY [SLC19A2] showed a protein stability index under setting [1] of 2.94 ± 0.41 and a protein stability index under setting [2] of 3.03 ± 0.72.
Consider SLIEDLQRELEIPEQQVDMHDMLL [ZNF449], for which the protein stability index runs as follows: under setting [1], 3.56 ± 0.35; under setting [2], 3.51 ± 0.34.
As to SLKGSLSVEEQLSLISGCPNIQEA [CRYL1], the protein stability index amounted to 4.18 ± 0.3 under setting [1] and 4.12 ± 0.36 under setting [2].
For the sequence SLPRDRVLGFLIENFKGLAIPYLE [VPS39], the protein stability index by setting is: under setting [1], 3.24 ± 0.26; under setting [2], 2.92 ± 0.49.
The sequence SLQTGNHSNGPTDLSMKGGASTTS [NOL4L] returned a protein stability index under setting [1] of 4.12 ± 0.25 and a protein stability index under setting [2] of 4.31 ± 0.27.
On the same counts, the results for SLSGVMLTDVSPEPLQALLERASA [PRAME] are 3.61 ± 0.4 and 3.51 ± 0.31.
In the case of SLYRDIRDIQDENQLLVADVKRLG [STX11], the protein stability index came out at 3.67 ± 0.33 under setting [1] and 3.58 ± 0.22 under setting [2].
